Experimental findings from PMC8663791 (2021) are described below.

Common to all, as to assay: activation reporter or marker
The target of test [1] is T1, ZNT8 1-20 peptide on HLA-DRB1*04:01 (human).
T1 peptide: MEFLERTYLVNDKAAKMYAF

The target of test [2] is T2, GAD65 113-132 peptide on HLA-DRB1*04:01 (human).
T2 peptide: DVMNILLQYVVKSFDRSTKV

For test [3], the target named is IGRP 241-260 peptide on HLA-DRB1*04:01 (human).
Test [4] concerns the target IGRP 305-324 peptide on HLA-DRB1*04:01 (human).
The target of test [5] is T3, GAD65 105-124 peptide on HLA-DRB1*04:01 (human).
T3 peptide: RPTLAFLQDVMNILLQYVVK

Test [6] deals with T4, GAD65 553-572 peptide on HLA-DRB1*04:01 (human).
T4 peptide: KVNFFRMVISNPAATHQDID

Test [7] deals with T5, ZNT8 266-285 peptide on HLA-DRB1*04:01 (human).
T5 peptide: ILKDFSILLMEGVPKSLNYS

Test [8] addresses GAD65 265-284 peptide on HLA-DRB1*04:01 (human).
In test [9] the target is T6, GAD65 353-372 peptide on HLA-DRB1*04:01 (human).
T6 peptide: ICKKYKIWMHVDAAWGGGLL

B1: Clone_1826 (TCR)
alpha TRAV13-2 TRAJ20 CDR3: CAENRSDYKLSF
beta TRBV28 TRBJ2-5 CDR3: CASSSQGQGKETQYF
For B1, in test [1], the binding result is listed as “recognises”.

B2: Clone_667 (TCR)
alpha TRAV5 TRAJ7 CDR3: CAERLYGNNRLAF
beta TRBV6-1 TRBJ2-7 CDR3: CASTLLWGGDSYEQYF
Regarding B2, the binding result in test [2] is “recognises”.

B3: Clone_640 (TCR)
alpha TRAV41 TRAJ49 CDR3: CAAAGNQFYF
beta TRBV12-4 TRBJ2-1 CDR3: CASSFTYNEQFF
In the case of B3, the binding result in test [2] is “recognises”.

B4: Clone_896 (TCR)
alpha TRAV12-2 TRAJ15 CDR3: CAVNPNQAGTALIF
beta TRBV6-6 TRBJ1-5 CDR3: CASAPQEAQPQHF
In the case of B4, the binding result in test [3] is recorded as “recognises”.

B5: Clone_262 (TCR)
alpha TRAV12-3 TRAJ29 CDR3: CAMEGGRYNTPLVF
beta TRBV5-6 TRBJ1-1 CDR3: CASSVNRGHNTEAFF
As for B5, in test [2], the binding result is recorded as “recognises”.

B6: Clone_855 (TCR)
alpha TRAV8-2 TRAJ27 CDR3: CVVSVGTNAGKSTF
beta TRBV11-3 TRBJ2-2 CDR3: CASSFSGELFF
As to B6, in [3], the binding result is on record as “recognises”.

B7: Clone_300 (TCR)
alpha TRAV17 TRAJ22 CDR3: CATDSSSGSARQLTF
beta TRBV5-1 TRBJ2-7 CDR3: CASSLVGGRVDWREQYF
As to B7, the binding result in [4] is listed as “recognises”.

B8: Clone_904 (TCR)
alpha TRAV9-2 TRAJ52 CDR3: CALSDYSGTSYGKLTF
beta TRBV11-2 TRBJ2-1 CDR3: CASSLIPYNEQFF
In the case of B8, in [2], the binding result was “recognises”.

B9: Clone_5 (TCR)
alpha TRAV3 TRAJ13 CDR3: CAVRDSFSGGYQKVTF
beta TRBV12-4 TRBJ2-7 CDR3: CASSPLAGAWSYEQYF
In the case of B9, in test [4], the binding result is “recognises”.

B10: Clone_2353 (TCR)
alpha TRAV26-2 TRAJ48 CDR3: CILRDTISNFGNEKLTF
beta TRBV7-9 TRBJ1-2 CDR3: CASSFGSSYYGYTF
In the case of B10, the binding result in [4] is on record as “recognises”.

B11: Clone_1662 (TCR)
alpha TRAV13-1 TRAJ41 CDR3: CAASGANSGYALNF
beta TRBV30 TRBJ2-5 CDR3: CAWSAQGETQYF
For the molecule B11, the binding result in test [1] is reported as “recognises”.

B12: Clone_2073 (TCR)
alpha TRAV8-6 TRAJ57 CDR3: CAVKLQGGSEKLVF
beta TRBV2 TRBJ1-5 CDR3: CASKYNRGEQPQHF
As for B12, the binding result in [5] was “recognises”.

B13: Clone_2356 (TCR)
alpha TRAV25 TRAJ36 CDR3: CAGQTGANNLFF
beta TRBV4-3 TRBJ1-5 CDR3: CASSQEVGTVPNQPQHF
B13: the binding result in test [4] is “recognises”.

B14: Clone_578 (TCR)
alpha TRAV8-3 TRAJ32 CDR3: CAVGAGYGGATNKLIF
beta TRBV12-3 TRBJ2-7 CDR3: CASSFRGGGNPYEQYF
Turning to B14, the binding result in test [6] is “recognises”.

B15: Clone_839 (TCR)
alpha TRAV17 TRAJ6 CDR3: CATDEGGSYIPTF
beta TRBV11-3 TRBJ2-2 CDR3: CASSFSGELFF
For the molecule B15, the binding result in [2] was “recognises”.

B16: Clone_271 (TCR)
alpha TRAV20 TRAJ39 CDR3: CAVQAGNAGNMLTF
beta TRBV7-6 TRBJ2-2 CDR3: CASSLGVTGELFF
For B16, the binding result in test [2] was “recognises”.

B17: Clone_295 (TCR)
alpha TRAV5 TRAJ22 CDR3: CAESTSGSARQLTF
beta TRBV30 TRBJ2-1 CDR3: CAWMGGYNEQFF
On to B17, for which, in test [7], the binding result was “recognises”.

B18: Clone_478 (TCR)
alpha TRAV3 TRAJ28 CDR3: CAVRDMRGAGSYQLTF
beta TRBV6-5 TRBJ2-7 CDR3: CASSLGTGTGVYEQYF
Take B18: in test [8], the binding result is listed as “recognises”.

B19: Clone_2312 (TCR)
alpha TRAV14DV4 TRAJ15 CDR3: CAMREMNQAGTALIF
beta TRBV6-2 TRBJ1-5 CDR3: CASTKGGTHQPQHF
For B19, the binding result in test [9] is recorded as “recognises”.

B20: Clone_2062 (TCR)
alpha TRAV20 TRAJ39 CDR3: CAVQAGNAGNMLTF
beta TRBV7-6 TRBJ2-2 CDR3: CASASGVVGELFF
Regarding B20, in [2], the binding result was “recognises”.
